The target of the assay is MET on NCI-H596 cells (MET exon14 skip mutation) (human) (UniProt P08581). Description: cell-based or functional assay.

“hepatocyte growth factor (HGF) (from UniProt P14210 32-728) (ligand)”: the Relative Cell Growth (n = 3), NCI-H596 in soft agar, 100 ng/mL, two weeks (relative to control (no treatment)) turned out to be 7.88.

These data come from US20240084041A1.
